Blank lines part the entries; values can stand above or below the molecule they belong to.
Columns and labels:
[1] = pKa determination of the chromophore; format: physicochemical
Procedure: pKa determination. To measure the chromophore pKa of mApple, EGFP, and mCherry variants, the proteins were prepared in buffers (sodium acetate buffer for pH 3-5, MES buffer for pH 5-6, HEPES buffer for pH 6.5-8, TRIS buffer for pH 8.5-9) covering a pH range from 3 to 10. All samples were Incubated at 4° C. overnight, then the following day, the absorbance and fluorescence spectra were collected using a Shimadzu UV-1601 spectrophotometer and the Spectrofluorimeter.

[2] = Calcium (Ca^2+) binding assay: fluorescence/absorbance titration of purified protein; details: for Aholo/Aapo: absorbance at 569
Procedure: Calcium (Ca^2+) binding assay. 10 μM protein samples of mApple, EGFP, and mCherry variants were titrated with different concentrations of Ca^2+. Data were fitted with a 1:1 binding equation. Fluorescence intensities were collected using a Spectrofluorimeter (Photon Technology International, Inc.) and the absorbance values of Ca^2+-free and Ca^2+-loaded forms were determined using a Shimadzu UV-1601 spectrophotome.
Ca^2+ binding assay. Fluorescence measurements of mApple variants with increasing Ca^2+ concentrations were done in order to obtain the affinity of the sensor for Ca^2+ in vitro. Samples of 10 μM mApple variants with 5 μM EGTA were prepared in triplicate in 1 mL volumes in 10 mM Tris, pH 7.4. The samples were placed in quartz fluorescence cuvettes, and metal ion was titrated into each sample, in a stepwise manner, using 0.1 M and 1 M metal stock solutions. The fluorescence response of the indicator to increasing Ca^2+ concentrations was monitored using a fluorescence spectrophotometer (Photon Technology International, Canada) with the Felix32 fluorescence analysis software. The absorbance spectra before and after titration were obtained using a Shimadzu UV-1601 spectrophotometer.

[3] = Quantum yield, extinction coefficient, and brightness determination; format: physicochemical; parameters: key to Brightness: extinction coefficient × quantum yield
Procedure: Quantum yield, extinction coefficient, and brightness determination. The quantum yield values of all the variants were determined by measuring the emitted fluorescence intensities and absorbance intensities of the chromophore at different protein concentrations. The wildtype was used as a reference to calculate quantum yield. Brightness was defined as a visual perception in which a source appears to emit or reflect a given amount of light, which was obtained by multiplying the extinction coefficient and the quantum yield.

[4] = mCherry based indicators, Ca^2+ induced fluorescence change

Fmax/Fmin ([2]; EGFP and mApple variants): 1.02 | Aholo/Aapo [2]: 1.07 (569)
B1: mApple: red fluorescent scaffold protein, SEQ ID NO: 11 (protein)
chain: EENNMAIIKEFMRFKVHMEGSVNGHEFEIEGEGEGRPYEAFQTAKLKVTKGGPLPFAWDILSPQFMYGSKVYIKHPADIPDYFKLSFPEGFRWERVMNFEDGGIIHVNQDSSLQDGVFIYKVKLRGTNFPSDGPVMQKKTMGWEASEERMYPEDGALKSEIKKRLKLKDGGHYAAEVKTTYKAKKPVQLPGAYIVDIKLDIVSHNEDYTIVEQYERAEGRHSTGGMDELYK
pka ([1]; scaffold, no apo/holo stated): 6.26 ± 0.23 | Brightness ([3]; scaffold, no apo/holo stated): 0.37 ± 0.01 | Extinction coefficient ([3]; scaffold, no apo/holo stated): 75000 M⁻¹ cm⁻¹ | Fluorescence quantum yield ([3]; scaffold, no apo/holo stated): 0.49 ± 0.01

Fmax/Fmin ([2]; EGFP and mApple variants): 2.48 | Aholo/Aapo [2]: 2.21 (569)
B2: mApple K198D/R216D: mApple variant, SEQ ID NO: 24 (protein)
chain: EENNMAIIKEFMRFKVHMEGSVNGHEFEIEGEGEGRPYEAFQTAKLKVTKGGPLPFAWDILSPQFMYGSKVYIKHPADIPDYFKLSFPEGFRWERVMNFEDGGIIHVNQDSSLQDGVFIYKVKLRGTNFPSDGPVMQKKTMGWEASEERMYPEDGALKSEIKKRLKLKDGGHYAAEVKTTYKAKKPVQLPGAYIVDIDLDIVSHNEDYTIVEQYEDAEGRHSTGGMDELYK
pka ([1]; Apo): 7.04 ± 0.11 | pka ([1]; Holo): 6.56 ± 0.11 | Brightness ([3]; Apo): 0.15 ± 0.01 | Extinction coefficient ([3]; Apo): 38000 M⁻¹ cm⁻¹ | Fluorescence quantum yield ([3]; Apo): 0.40 ± 0.01 | Brightness ([3]; Holo): 0.37 ± 0.01 | Extinction coefficient ([3]; Holo): 65000 M⁻¹ cm⁻¹ | Fluorescence quantum yield ([3]; Holo): 0.58 ± 0.01

Fmax/Fmin ([2]; EGFP and mApple variants): 4.43 | Aholo/Aapo [2]: 1.66 (569)
B3: mApple A145E/E147D/K198D/R216E: mApple variant, SEQ ID NO: 27 (protein)
chain: EENNMAIIKEFMRFKVHMEGSVNGHEFEIEGEGEGRPYEAFQTAKLKVTKGGPLPFAWDILSPQFMYGSKVYIKHPADIPDYFKLSFPEGFRWERVMNFEDGGIIHVNQDSSLQDGVFIYKVKLRGTNFPSDGPVMQKKTMGWEESDERMYPEDGALKSEIKKRLKLKDGGHYAAEVKTTYKAKKPVQLPGAYIVDIDLDIVSHNEDYTIVEQYEEAEGRHSTGGMDELYK

Fmax/Fmin ([2]; EGFP and mApple variants): 1.17 | Aholo/Aapo [2]: 1.41 (569)
B4: mApple K198D: mApple variant, SEQ ID NO: 23 (protein)
chain: EENNMAIIKEFMRFKVHMEGSVNGHEFEIEGEGEGRPYEAFQTAKLKVTKGGPLPFAWDILSPQFMYGSKVYIKHPADIPDYFKLSFPEGFRWERVMNFEDGGIIHVNQDSSLQDGVFIYKVKLRGTNFPSDGPVMQKKTMGWEASEERMYPEDGALKSEIKKRLKLKDGGHYAAEVKTTYKAKKPVQLPGAYIVDIDLDIVSHNEDYTIVEQYERAEGRHSTGGMDELYK
pka ([1]; Apo): 6.68 ± 0.09 | pka ([1]; Holo): 6.90 ± 0.12 | Brightness ([3]; Apo): 0.32 ± 0.01 | Extinction coefficient ([3]; Apo): 59000 M⁻¹ cm⁻¹ | Fluorescence quantum yield ([3]; Apo): 0.54 ± 0.01 | Brightness ([3]; Holo): 0.42 ± 0.03 | Extinction coefficient ([3]; Holo): 69000 M⁻¹ cm⁻¹ | Fluorescence quantum yield ([3]; Holo): 0.61 ± 0.03

Fmax/Fmin ([2]; EGFP and mApple variants): 3.75 | Aholo/Aapo [2]: 1.57 (569)
B5: mApple A145D/K198D/R216E: mApple variant, SEQ ID NO: 26 (protein)
chain: EENNMAIIKEFMRFKVHMEGSVNGHEFEIEGEGEGRPYEAFQTAKLKVTKGGPLPFAWDILSPQFMYGSKVYIKHPADIPDYFKLSFPEGFRWERVMNFEDGGIIHVNQDSSLQDGVFIYKVKLRGTNFPSDGPVMQKKTMGWEDSEERMYPEDGALKSEIKKRLKLKDGGHYAAEVKTTYKAKKPVQLPGAYIVDIDLDIVSHNEDYTIVEQYEEAEGRHSTGGMDELYK

Fmax/Fmin ([2]; EGFP and mApple variants): 2.15 | Aholo/Aapo [2]: 1.04 (569)
B6: mApple A145E/K198E/R216E: mApple variant, SEQ ID NO: 30 (protein)
chain: EENNMAIIKEFMRFKVHMEGSVNGHEFEIEGEGEGRPYEAFQTAKLKVTKGGPLPFAWDILSPQFMYGSKVYIKHPADIPDYFKLSFPEGFRWERVMNFEDGGIIHVNQDSSLQDGVFIYKVKLRGTNFPSDGPVMQKKTMGWEESEERMYPEDGALKSEIKKRLKLKDGGHYAAEVKTTYKAKKPVQLPGAYIVDIELDIVSHNEDYTIVEQYEEAEGRHSTGGMDELYK

Fmax/Fmin ([2]; EGFP and mApple variants): 3.23 | Aholo/Aapo [2]: 1.84 (569)
B7: mApple A145D/E147D/K198D/R216E: mApple variant, SEQ ID NO: 28 (protein)
chain: EENNMAIIKEFMRFKVHMEGSVNGHEFEIEGEGEGRPYEAFQTAKLKVTKGGPLPFAWDILSPQFMYGSKVYIKHPADIPDYFKLSFPEGFRWERVMNFEDGGIIHVNQDSSLQDGVFIYKVKLRGTNFPSDGPVMQKKTMGWEDSDERMYPEDGALKSEIKKRLKLKDGGHYAAEVKTTYKAKKPVQLPGAYIVDIDLDIVSHNEDYTIVEQYEEAEGRHSTGGMDELYK

Fmax/Fmin ([2]; EGFP and mApple variants): 2.64 | Aholo/Aapo [2]: 1.59 (569)
B8: mApple A145E/K198D/R216E/E218D: mApple variant, SEQ ID NO: 29 (protein)
chain: EENNMAIIKEFMRFKVHMEGSVNGHEFEIEGEGEGRPYEAFQTAKLKVTKGGPLPFAWDILSPQFMYGSKVYIKHPADIPDYFKLSFPEGFRWERVMNFEDGGIIHVNQDSSLQDGVFIYKVKLRGTNFPSDGPVMQKKTMGWEESEERMYPEDGALKSEIKKRLKLKDGGHYAAEVKTTYKAKKPVQLPGAYIVDIDLDIVSHNEDYTIVEQYEEADGRHSTGGMDELYK

Fmax/Fmin [2, 4]: 0.93 ± 0.02
B9: mCherry A145E/N196D/K198D: mCherry based indicator attempt, 4 negatively charged residues (protein)
chain: EEDNMAIIKEFMRFKVHMEGSVNGHEFEIEGEGEGRPYEGTQTAKLKVTKGGPLPFAWDILSPQFMYGSKAYVKHPADIPDYLKLSFPEGFKWERVMNFEDGGVVTVTQDSSLQDGEFIYKVKLRGTNFPSDGPVMQKKTMGWEESSERMYPEDGALKGEIKQRLKLKDGGHYDAEVKTTYKAKKPVQLPGAYNVDIDLDITSHNEDYTIVEQYERAEGRHSTGGMDELYK

Fmax/Fmin [2, 4]: 1.05 ± 0.06
B10: mCherry A145E/N196D/K198D/R216E: mCherry based indicator attempt, 5 negatively charged residues (protein)
chain: EEDNMAIIKEFMRFKVHMEGSVNGHEFEIEGEGEGRPYEGTQTAKLKVTKGGPLPFAWDILSPQFMYGSKAYVKHPADIPDYLKLSFPEGFKWERVMNFEDGGVVTVTQDSSLQDGEFIYKVKLRGTNFPSDGPVMQKKTMGWEESSERMYPEDGALKGEIKQRLKLKDGGHYDAEVKTTYKAKKPVQLPGAYNVDIDLDITSHNEDYTIVEQYEEAEGRHSTGGMDELYK
